Columns and labels:
[1] = tested on: Spontaneously Hypertensive Rats (SHR); assay: Plasma cGMP in spontaneously hypertensive rats; type: in vivo, rat; conditions: iv infusion, FIG. 9A
Procedure: All rat experiments are conducted following the Animal Welfare Act and the protocol is approved by the Mayo Clinic Institutional Animal Care and Use Committee (IACUC). […] Rats are included only if they are deemed healthy by the Institutional Veterinarian Department. Investigators who conduct the in vivo study are not blinded to treatments, but biochemical analysis is performed by a different investigator who is blinded to treatment.
On the day of the experiment, SHR rats are anesthetized with inactin (120 mg/kg, intraperitoneal injection, Sigma, St. Louis, MO). Rats are then kept on a heating pad at 38° C. to maintain a normal body temperature for the entire study. Vascular and bladder cannulation procedures are conducted. Briefly, a polyethylene-50 (PE-50) tube catheter is placed into one jugular vein for peptide infusion and another PE-50 tube is placed into the carotid artery for blood pressure (BP) monitoring (Sonometrics, London, Ontario, Canada) and blood sampling. After instrumentation, a 15-minute equilibrium period follows, and a 30-minute pre-infusion period is performed to collect baseline urine samples.
Four blood samples are collected to determine circulating cGMP levels: at baseline, before the end of drug infusion, at the middle of the washout clearance period, and before the end of the washout clearance period. Any blood loss in the rats is replaced with an equal volume of saline. BP is monitored and recorded every 15 minutes beginning after the initiation of peptide infusion. All collected blood are stored at −80° C. until assayed.
For the biochemical analysis, plasma cGMP levels are measured with a cGMP ELISA kit (Enzo Life Sciences, Farmingdale, NY).

[2] = molecular target: T1, extracellular domain of GC-A recombinant protein with a C-terminal His-tag (human), P16066; assay: SPR (BI-4500, 25 C); His-tagged GC-A extracellular domain immobilized on Ni-NTA chip; CRRL 191 injected at 0.125, 0.25, 0.5, 1 and 2 nM
T1 chain: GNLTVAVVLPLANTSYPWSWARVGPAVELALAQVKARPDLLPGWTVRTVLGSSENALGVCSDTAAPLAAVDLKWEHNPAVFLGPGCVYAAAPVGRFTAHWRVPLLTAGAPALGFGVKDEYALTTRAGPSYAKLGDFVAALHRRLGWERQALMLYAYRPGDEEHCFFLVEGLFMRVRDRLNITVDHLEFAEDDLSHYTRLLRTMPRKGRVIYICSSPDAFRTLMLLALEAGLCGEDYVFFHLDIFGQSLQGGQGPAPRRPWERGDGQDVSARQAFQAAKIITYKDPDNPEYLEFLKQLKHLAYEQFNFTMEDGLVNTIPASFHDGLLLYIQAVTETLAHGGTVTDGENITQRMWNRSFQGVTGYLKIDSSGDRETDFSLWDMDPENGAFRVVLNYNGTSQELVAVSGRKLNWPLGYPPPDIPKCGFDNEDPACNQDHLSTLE

[3] = molecular target: T1, extracellular domain of GC-A …; assay: SPR (BI-4500), His-tagged GC-A extracellular domain on Ni-NTA chip, peptide as analyte, 25 C
[4] = molecular target: T2, human GC-A (human), P16066; assay: cell-based or functional assay
T2 chain: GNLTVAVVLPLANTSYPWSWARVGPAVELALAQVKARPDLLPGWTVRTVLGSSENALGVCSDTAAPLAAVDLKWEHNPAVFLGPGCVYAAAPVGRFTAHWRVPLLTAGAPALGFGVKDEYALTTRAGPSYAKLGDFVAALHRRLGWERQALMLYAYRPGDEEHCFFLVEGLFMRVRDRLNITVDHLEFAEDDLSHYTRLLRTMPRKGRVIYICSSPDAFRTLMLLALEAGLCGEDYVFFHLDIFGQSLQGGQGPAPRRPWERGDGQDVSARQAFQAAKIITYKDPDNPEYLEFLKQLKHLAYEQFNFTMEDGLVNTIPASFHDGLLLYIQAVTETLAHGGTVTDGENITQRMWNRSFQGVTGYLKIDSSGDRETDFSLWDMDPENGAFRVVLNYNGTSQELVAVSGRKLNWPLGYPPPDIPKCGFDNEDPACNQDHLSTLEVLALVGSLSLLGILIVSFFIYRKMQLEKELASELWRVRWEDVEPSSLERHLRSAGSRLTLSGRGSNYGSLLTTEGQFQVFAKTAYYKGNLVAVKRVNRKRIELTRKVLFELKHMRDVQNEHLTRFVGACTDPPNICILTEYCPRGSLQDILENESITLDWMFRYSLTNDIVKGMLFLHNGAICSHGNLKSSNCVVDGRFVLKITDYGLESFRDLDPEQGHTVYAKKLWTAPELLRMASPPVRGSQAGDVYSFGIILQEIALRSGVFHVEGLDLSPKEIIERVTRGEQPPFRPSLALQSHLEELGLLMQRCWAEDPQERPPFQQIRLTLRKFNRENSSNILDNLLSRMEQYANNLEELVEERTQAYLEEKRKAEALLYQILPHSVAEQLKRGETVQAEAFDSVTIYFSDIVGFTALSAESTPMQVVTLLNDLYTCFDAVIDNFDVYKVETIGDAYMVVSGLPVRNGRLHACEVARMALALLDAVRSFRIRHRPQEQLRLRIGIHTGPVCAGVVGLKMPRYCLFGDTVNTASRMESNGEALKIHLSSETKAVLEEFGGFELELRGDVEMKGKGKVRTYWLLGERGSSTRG

With `CC[C@H](C)[C@@H]1NC(=O)[C@H](CCCNC(=N)N)NC(=O)[C@H](CC(=O)O)NC(=O)[C@H](CCSC)NC(=O)[C@H](CCCNC(=N)N)NC(=O)CNC(=O)CNC(=O)[C@H](Cc2ccccc2)NC(=O)[C@@H](NC(=O)[C@H](CO)NC(=O)[C@H](CO)NC(=O)[C@H](CCCNC(=N)N)NC(=O)[C@H](CCCNC(=N)N)NC(=O)[C@H](CC(C)C)NC(=O)[C@@H](N)CO)CSSC[C@@H](C(=O)N[C@@H](CC(N)=O)C(=O)N[C@@H](CO)C(=O)N[C@@H](Cc2ccccc2)C(=O)N[C@@H](CCCNC(=N)N)C(=O)N[C@@H](Cc2ccc(O)cc2)C(=O)O)NC(=O)CNC(=O)[C@H](CC(C)C)NC(=O)CNC(=O)[C@H](CO)NC(=O)[C@H](CCC(N)=O)NC(=O)[C@H](C)NC(=O)CNC1=O` [ANP, reference compound] the “plasma cGMP levels” value [1] was “increase”.

With RALLTAPRSLRRSSCFGHKIDRINHVSNLGCNSFRYRITAREDKQGWA (modifications not checked) [CRRL 191] the Kd [2] was 0.128 nM, the Kd [3] was 0.128 nM and the EC50 of cGMP production, HEK293 GC-A cells, 10 min stimulation [4] was 0.48 nM. The intracellular cGMP (Mean) at 10^-6 M peptide [4] was 135, the intracellular cGMP (Mean) at 10^-7 M peptide [4] was 141 and the intracellular cGMP (Mean) at 10^-8 M peptide [4] was 152. It also gave an intracellular cGMP (Mean) at 10^-9 M peptide [4] of 89.9, an intracellular cGMP (Mean) at 10^-10 M peptide [4] of 35.6 and an intracellular cGMP (Mean) at 10^-12 M peptide [4] of 2.57. For the same molecule, the intracellular cGMP (Mean) at 10^-14 M peptide [4] was 3.07.
